In paper PMC7025878 one finds stoichiometry N data, which are given here for one substance.

This assay concerns the target GluD1△851 (rat GluD1 receptor truncated C-terminally at residue 851) (rat). The assay can be described thus: cryo-EM structure.

The stoichiometry N is a count of units in the complex or per binding partner. In turn, “GluD1△851 (rat GluD1 receptor truncated C-terminally at residue 851)” returned a stoichiometry N of 4.
